Laboratory results: article PMC11417388, “Trypanosome mRNA recapping is triggered by hypermethylation originating from cap 4” (Nucleic Acids Research, 2024)

B1: TbCe1 (Trypanosoma brucei brucei TREU927) (protein)
chain: MSATDVASELRSGAPEYVPTFLRCKQSENVTAFESPVVFLMFGCRGAGKSTQSTLLSKTYNLLYLSSGDIYKSGKQPFVELRKILNEHFGDGKERVYNGVVLDRFIANSEFEAFYVQTALRSVGLPVPFVFMLAIDQGLAAKRAEERGDNKGGNQRWRAVEQKAQAITANTVYAPIQCLKTIRVESDMTIDDVFNEIKTTIANQLPPDLFNLQLPREARREVEGTVLVEDYELYMELANDVHTVVGNLRGRRDSAPLSNVGAHLDKEYFSFANKRLRSQLTTMHVTLKADGLRFLVMKHKTRGYIGFPSAFTHCYELNDLFEGVEMAPKPYTELKKWMNDKSCELPADFLLDTEVVVHEKKPTLYIIDFIYFWGLDGRRMQFEQRLKVLREYFGDMKPQGQVIAMKDYVPINKIRTLVEEMKRRTELPVDGLIFQHNGSYRFGSDKFLIKWKPVHLCTVDFRLANGRVENGVWTFDLFVTDDFIEENGFREVAYPGATALIPASVVEENGLQNGMIIEMALSEKESVKKTSPNAPSEKTRWTFRNARNDKPSPNKYSIVTRICELMHVDLDELVSLCEKVPFYRNV
notes: expressed as His-Smt3 fusion in E. coli; tag removed by Ulp1; glycerol gradient purified

Tests used:
vvD1/D12 = target: T1, vvD1/D12 (Vaccinia virus WR, UniProt P04298)
T1 construct: gene OPG113

purified protein = substrate: Nc1ncnc2c1ncn2[C@@H]1O[C@H](COP(=O)(O)OP(=O)(O)OP(=O)(O)O)[C@@H](O)[C@H]1O; assay: purified protein; assay type: biochemical, Trypanosoma brucei; settings: co-substrate 100 nM fully methylated cap 4 pRNA (p m6,2AmAmCm m3Um), 0.5 mM MgCl2, pH 8.5, 27 °C, labelled compound

| Molecule | cap methyltransferase assay on ppRNA substrates (vvD1/D12) | Km (purified protein) [µM] | kcat (purified protein) [s⁻¹] |
| --- | --- | --- | --- |
| C[S+](CC[C@H](N)C(=O)O)C[C@H]1O[C@@H](n2cnc3c(N)ncnc32)[C@H](O)[C@@H]1O (stereo partly drawn) [AdoMet] | cap methyltransferase activity was compared on ppAmAmCmUm and unmodified ppRNAs |  |  |
| B1 |  | 0.21 | 0.0383 |
